This assay has as its target human LTBR endogenously expressed on cells (HepG2, A549, A375, HCC1187, RPMI-7951, primary human breast CAFs) (human) (UniProt P36941). Description: cell-based or functional assay.

The record followed here is US20260176336A1.

Sequence of human LTBR endogenously expressed on cells (HepG2, A549, A375, HCC1187, RPMI-7951, primary human breast CAFs) (human) (P36941 31-435): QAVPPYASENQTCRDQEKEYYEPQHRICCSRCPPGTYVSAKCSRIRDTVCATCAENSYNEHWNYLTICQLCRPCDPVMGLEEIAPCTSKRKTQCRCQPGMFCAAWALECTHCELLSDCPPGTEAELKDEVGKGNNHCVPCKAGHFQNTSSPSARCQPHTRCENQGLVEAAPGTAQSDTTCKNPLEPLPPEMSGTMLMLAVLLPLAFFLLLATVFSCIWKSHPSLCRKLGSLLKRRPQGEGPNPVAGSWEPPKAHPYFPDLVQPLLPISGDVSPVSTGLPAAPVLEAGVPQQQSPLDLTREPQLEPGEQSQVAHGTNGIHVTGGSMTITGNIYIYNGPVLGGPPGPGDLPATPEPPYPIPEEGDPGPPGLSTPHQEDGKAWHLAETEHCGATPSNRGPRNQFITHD

B1: CBE-11 (antibody, from another filing, human IgG1, V domains shown)
VH: EVQLVESGGGLVKPGGSLRLSCAASGFTFSDYYMYWFRQAPGKGLEWVATISDGGSYTYYPDSVKGRFTISRDNAKNSLYLQMSSLRAEDTAVYYCAREENGNFYYFDYWGQGTTVTVSS
VL: DIQMTQSPSSLSASVGDRVTITCKAGQDIKSYLSWYQQKPGKAPKLLIYYATRLADGVPSRFSGSGSGTDYTLTISSLQPEDFATYYCLQHGESPWTFGGGTKLEIKR
Consider B1, for which the CCL19 upregulation, HCC1187:CAF Co-culture EC50 worked out at 0.26 nM; the CCL19 upregulation, HCC1187 Monoculture EC50 was 0.23 nM; the HCC1187 monoculture assay CCL19 read-out EC50 worked out at 0.239 nM; the HCC-1187:RPMI7951 (cis-activation) co-culture assay CCL5 read-out EC50 came out at 0.13 nM. Moreover, the HCC-1187:RPMI7951 (trans-activation) co-culture assay, CCL19 Read-out EC50 is 0.084 nM; the HepG2 Reporter assay, HepG2:FAP-CHO-K1 Co-culture EC50 was found to be 0.046 nM; the HepG2 Reporter assay, HepG2 Monoculture EC50 is 0.033 nM; the ICAM1 upregulation in CAFs monoculture assay EC50 worked out at 0.044 nM. For the same molecule, the chemokine (CCL5) induction in RPMI-7951 EC50 amounted to 0.38 nM.
